Laboratory results reported in patent US20150344540A1, “NOVEL GLP-1 RECEPTOR AGONISTS WITH CHOLESTEROL EFFLUX ACTIVITY” (NOVO NORDISK A/S, priority 2012, published 2015).
Where no end group is shown, it is not given here. [ ]: non-standard residue; d: D form. Aib = CC(C)(N)C(=O)O

B1: [Aib8,Glu23,Val25,Gln26,Glu34,Ala35,Val36,Ala37]-GLP-1-(7-37)-peptidyl-Glu-Phe-Leu amide (peptide)
peptide: H[Aib]EGTFTSDVSSYLEGEAVQEFIAWLVEAVAEFL-NH2
modifications: N-terminus assumed
SMILES: CC[C@H](C)[C@H](NC(=O)[C@H](Cc1ccccc1)NC(=O)[C@H](CCC(=O)O)NC(=O)[C@H](CCC(N)=O)NC(=O)[C@@H](NC(=O)[C@H](C)NC(=O)[C@H](CCC(=O)O)NC(=O)CNC(=O)[C@H](CCC(=O)O)NC(=O)[C@H](CC(C)C)NC(=O)[C@H](Cc1ccc(O)cc1)NC(=O)[C@H](CO)NC(=O)[C@H](CO)NC(=O)[C@@H](NC(=O)[C@H](CC(=O)O)NC(=O)[C@H](CO)NC(=O)[C@@H](NC(=O)[C@H](Cc1ccccc1)NC(=O)[C@@H](NC(=O)CNC(=O)[C@H](CCC(=O)O)NC(=O)C(C)(C)NC(=O)[C@@H](N)Cc1c[nH]cn1)[C@@H](C)O)[C@@H](C)O)C(C)C)C(C)C)C(=O)N[C@@H](C)C(=O)N[C@@H](Cc1c[nH]c2ccccc12)C(=O)N[C@@H](CC(C)C)C(=O)N[C@H](C(=O)N[C@@H](CCC(=O)O)C(=O)N[C@@H](C)C(=O)N[C@H](C(=O)N[C@@H](C)C(=O)N[C@@H](CCC(=O)O)C(=O)N[C@@H](Cc1ccccc1)C(=O)N[C@@H](CC(C)C)C(N)=O)C(C)C)C(C)C
B2: [Aib8,Glu23,Glu34,Lys35,Aib36,Lys37]-GLP-1-(7-37)-peptidyl-Glu-Phe-Leu amide (peptide)
peptide: H[Aib]EGTFTSDVSSYLEGEAAKEFIAWLVEK[Aib]KEFL-NH2
modifications: N-terminus assumed
SMILES: CC[C@H](C)[C@H](NC(=O)[C@H](Cc1ccccc1)NC(=O)[C@H](CCC(=O)O)NC(=O)[C@H](CCCCN)NC(=O)[C@H](C)NC(=O)[C@H](C)NC(=O)[C@H](CCC(=O)O)NC(=O)CNC(=O)[C@H](CCC(=O)O)NC(=O)[C@H](CC(C)C)NC(=O)[C@H](Cc1ccc(O)cc1)NC(=O)[C@H](CO)NC(=O)[C@H](CO)NC(=O)[C@@H](NC(=O)[C@H](CC(=O)O)NC(=O)[C@H](CO)NC(=O)[C@@H](NC(=O)[C@H](Cc1ccccc1)NC(=O)[C@@H](NC(=O)CNC(=O)[C@H](CCC(=O)O)NC(=O)C(C)(C)NC(=O)[C@@H](N)Cc1c[nH]cn1)[C@@H](C)O)[C@@H](C)O)C(C)C)C(=O)N[C@@H](C)C(=O)N[C@@H](Cc1c[nH]c2ccccc12)C(=O)N[C@@H](CC(C)C)C(=O)N[C@H](C(=O)N[C@@H](CCC(=O)O)C(=O)N[C@@H](CCCCN)C(=O)NC(C)(C)C(=O)N[C@@H](CCCCN)C(=O)N[C@@H](CCC(=O)O)C(=O)N[C@@H](Cc1ccccc1)C(=O)N[C@@H](CC(C)C)C(N)=O)C(C)C
B3: [Aib8,Val25,Glu34,Lys35,Aib36,Lys37]-GLP-1-(7-37)-peptidyl-Glu-Phe-Leu amide (peptide)
peptide: H[Aib]EGTFTSDVSSYLEGQAVKEFIAWLVEK[Aib]KEFL-NH2
modifications: N-terminus assumed
SMILES: CC[C@H](C)[C@H](NC(=O)[C@H](Cc1ccccc1)NC(=O)[C@H](CCC(=O)O)NC(=O)[C@H](CCCCN)NC(=O)[C@@H](NC(=O)[C@H](C)NC(=O)[C@H](CCC(N)=O)NC(=O)CNC(=O)[C@H](CCC(=O)O)NC(=O)[C@H](CC(C)C)NC(=O)[C@H](Cc1ccc(O)cc1)NC(=O)[C@H](CO)NC(=O)[C@H](CO)NC(=O)[C@@H](NC(=O)[C@H](CC(=O)O)NC(=O)[C@H](CO)NC(=O)[C@@H](NC(=O)[C@H](Cc1ccccc1)NC(=O)[C@@H](NC(=O)CNC(=O)[C@H](CCC(=O)O)NC(=O)C(C)(C)NC(=O)[C@@H](N)Cc1c[nH]cn1)[C@@H](C)O)[C@@H](C)O)C(C)C)C(C)C)C(=O)N[C@@H](C)C(=O)N[C@@H](Cc1c[nH]c2ccccc12)C(=O)N[C@@H](CC(C)C)C(=O)N[C@H](C(=O)N[C@@H](CCC(=O)O)C(=O)N[C@@H](CCCCN)C(=O)NC(C)(C)C(=O)N[C@@H](CCCCN)C(=O)N[C@@H](CCC(=O)O)C(=O)N[C@@H](Cc1ccccc1)C(=O)N[C@@H](CC(C)C)C(N)=O)C(C)C
B4: [Aib8,Glu23,Val25,Gln26,Glu34,Gln35,Aib36,Gln37]-GLP-1-(7-37)-peptidyl-Glu-Phe-Leu amide (peptide)
peptide: H[Aib]EGTFTSDVSSYLEGEAVQEFIAWLVEQ[Aib]QEFL-NH2
modifications: N-terminus assumed
SMILES: CC[C@H](C)[C@H](NC(=O)[C@H](Cc1ccccc1)NC(=O)[C@H](CCC(=O)O)NC(=O)[C@H](CCC(N)=O)NC(=O)[C@@H](NC(=O)[C@H](C)NC(=O)[C@H](CCC(=O)O)NC(=O)CNC(=O)[C@H](CCC(=O)O)NC(=O)[C@H](CC(C)C)NC(=O)[C@H](Cc1ccc(O)cc1)NC(=O)[C@H](CO)NC(=O)[C@H](CO)NC(=O)[C@@H](NC(=O)[C@H](CC(=O)O)NC(=O)[C@H](CO)NC(=O)[C@@H](NC(=O)[C@H](Cc1ccccc1)NC(=O)[C@@H](NC(=O)CNC(=O)[C@H](CCC(=O)O)NC(=O)C(C)(C)NC(=O)[C@@H](N)Cc1c[nH]cn1)[C@@H](C)O)[C@@H](C)O)C(C)C)C(C)C)C(=O)N[C@@H](C)C(=O)N[C@@H](Cc1c[nH]c2ccccc12)C(=O)N[C@@H](CC(C)C)C(=O)N[C@H](C(=O)N[C@@H](CCC(=O)O)C(=O)N[C@@H](CCC(N)=O)C(=O)NC(C)(C)C(=O)N[C@@H](CCC(N)=O)C(=O)N[C@@H](CCC(=O)O)C(=O)N[C@@H](Cc1ccccc1)C(=O)N[C@@H](CC(C)C)C(N)=O)C(C)C
B5: [Aib8,Glu23,Lys24,Val25,Glu30,His31,Glu34,Lys35,Phe36,Lys37]-GLP-1-(7-37)-peptidyl-Glu-Phe-Phe amide (peptide)
peptide: H[Aib]EGTFTSDVSSYLEGEKVKEFIEHLVEKFKEFF-NH2
modifications: N-terminus assumed
SMILES: CC[C@H](C)[C@H](NC(=O)[C@H](Cc1ccccc1)NC(=O)[C@H](CCC(=O)O)NC(=O)[C@H](CCCCN)NC(=O)[C@@H](NC(=O)[C@H](CCCCN)NC(=O)[C@H](CCC(=O)O)NC(=O)CNC(=O)[C@H](CCC(=O)O)NC(=O)[C@H](CC(C)C)NC(=O)[C@H](Cc1ccc(O)cc1)NC(=O)[C@H](CO)NC(=O)[C@H](CO)NC(=O)[C@@H](NC(=O)[C@H](CC(=O)O)NC(=O)[C@H](CO)NC(=O)[C@@H](NC(=O)[C@H](Cc1ccccc1)NC(=O)[C@@H](NC(=O)CNC(=O)[C@H](CCC(=O)O)NC(=O)C(C)(C)NC(=O)[C@@H](N)Cc1c[nH]cn1)[C@@H](C)O)[C@@H](C)O)C(C)C)C(C)C)C(=O)N[C@@H](CCC(=O)O)C(=O)N[C@@H](Cc1c[nH]cn1)C(=O)N[C@@H](CC(C)C)C(=O)N[C@H](C(=O)N[C@@H](CCC(=O)O)C(=O)N[C@@H](CCCCN)C(=O)N[C@@H](Cc1ccccc1)C(=O)N[C@@H](CCCCN)C(=O)N[C@@H](CCC(=O)O)C(=O)N[C@@H](Cc1ccccc1)C(=O)N[C@@H](Cc1ccccc1)C(N)=O)C(C)C
B6: [Aib8,Pro22,Glu23,Val25,Glu34,Lys35,Aib36,Lys37]-GLP-1-(7-37)-peptidyl-Glu-Phe-Leu amide (peptide)
peptide: H[Aib]EGTFTSDVSSYLEPEAVKEFIAWLVEK[Aib]KEFL-NH2
modifications: N-terminus assumed
SMILES: CC[C@H](C)[C@H](NC(=O)[C@H](Cc1ccccc1)NC(=O)[C@H](CCC(=O)O)NC(=O)[C@H](CCCCN)NC(=O)[C@@H](NC(=O)[C@H](C)NC(=O)[C@H](CCC(=O)O)NC(=O)[C@@H]1CCCN1C(=O)[C@H](CCC(=O)O)NC(=O)[C@H](CC(C)C)NC(=O)[C@H](Cc1ccc(O)cc1)NC(=O)[C@H](CO)NC(=O)[C@H](CO)NC(=O)[C@@H](NC(=O)[C@H](CC(=O)O)NC(=O)[C@H](CO)NC(=O)[C@@H](NC(=O)[C@H](Cc1ccccc1)NC(=O)[C@@H](NC(=O)CNC(=O)[C@H](CCC(=O)O)NC(=O)C(C)(C)NC(=O)[C@@H](N)Cc1c[nH]cn1)[C@@H](C)O)[C@@H](C)O)C(C)C)C(C)C)C(=O)N[C@@H](C)C(=O)N[C@@H](Cc1c[nH]c2ccccc12)C(=O)N[C@@H](CC(C)C)C(=O)N[C@H](C(=O)N[C@@H](CCC(=O)O)C(=O)N[C@@H](CCCCN)C(=O)NC(C)(C)C(=O)N[C@@H](CCCCN)C(=O)N[C@@H](CCC(=O)O)C(=O)N[C@@H](Cc1ccccc1)C(=O)N[C@@H](CC(C)C)C(N)=O)C(C)C
B7: [Aib8,Val25,Gln27,Gln34,Lys35,Aib36,Lys37]-GLP-1-(7-37)-peptidyl-Gln-Phe-Leu amide (peptide)
peptide: H[Aib]EGTFTSDVSSYLEGQAVKQFIAWLVQK[Aib]KQFL-NH2
modifications: N-terminus assumed
SMILES: CC[C@H](C)[C@H](NC(=O)[C@H](Cc1ccccc1)NC(=O)[C@H](CCC(N)=O)NC(=O)[C@H](CCCCN)NC(=O)[C@@H](NC(=O)[C@H](C)NC(=O)[C@H](CCC(N)=O)NC(=O)CNC(=O)[C@H](CCC(=O)O)NC(=O)[C@H](CC(C)C)NC(=O)[C@H](Cc1ccc(O)cc1)NC(=O)[C@H](CO)NC(=O)[C@H](CO)NC(=O)[C@@H](NC(=O)[C@H](CC(=O)O)NC(=O)[C@H](CO)NC(=O)[C@@H](NC(=O)[C@H](Cc1ccccc1)NC(=O)[C@@H](NC(=O)CNC(=O)[C@H](CCC(=O)O)NC(=O)C(C)(C)NC(=O)[C@@H](N)Cc1c[nH]cn1)[C@@H](C)O)[C@@H](C)O)C(C)C)C(C)C)C(=O)N[C@@H](C)C(=O)N[C@@H](Cc1c[nH]c2ccccc12)C(=O)N[C@@H](CC(C)C)C(=O)N[C@H](C(=O)N[C@@H](CCC(N)=O)C(=O)N[C@@H](CCCCN)C(=O)NC(C)(C)C(=O)N[C@@H](CCCCN)C(=O)N[C@@H](CCC(N)=O)C(=O)N[C@@H](Cc1ccccc1)C(=O)N[C@@H](CC(C)C)C(N)=O)C(C)C

Target: human GLP-1 receptor (human, UniProt P43220)
Test: cell-based or functional assay

| Binder | CRE luciferase EC50, 0% HSA [nM] | CRE luciferase EC50, 1% HSA [nM] |
| --- | --- | --- |
| B1 | 0.622 | 0.273 |
| HAEGTFTSDVSSYLEGQAAKEFIAWLVEKVKEHL-NH2 [[Glu34,Lys35,Val36,Lys37]-GLP-1-(7-37)-peptidyl-Glu-His-Leu amide] | 0.04 | 0.01 |
| HAEGTFTSDVSSYLEGQAAKEFIAWLVEKVKEFLE-NH2 [[Glu34,Lys35,Val36,Lys37]-GLP-1-(7-37)-peptidyl-Glu-Phe-Leu-Glu amide] | 0.114 | 0.028 |
| B2 | 0.163 | 0.143 |
| B3 | 0.161 | 0.074 |
| HAEGTFTSDVSSYLEGQKAKEFIAWLVEGVKEFL-NH2 [[Lys24,Glu34,Val36,Lys37]-GLP-1-(7-37)-peptidyl-Glu-Phe-Leu amide] | 0.702 | 0.112 |
| B4 | 0.156 | 0.04 |
| B5 | 5.42 | 1.16 |
| B6 | 7.53 | 0.936 |
| HAEGTFTSDVSSYLEGQAAKEFIAWLVEKVKEFL-NH2 [[Glu34,Lys35,Val36,Lys37]-GLP-1-(7-37)-peptidyl-Glu-Phe-Leu amide] | 0.116 | 0.023 |
| B7 | 0.601 | 0.229 |
